Test results: the supplement of paper PMC9112550, “Optimization of the antimicrobial peptide Bac7 by deep mutational scanning” (BMC Biology, 2022)

What follows are sequences tested on Escherichia coli TOP10 (assay: shrunken log2 fold change of peptide-encoding DNA abundance (4.5 h post-induction vs induction); higher = less antimicrobial activity (less host growth inhibition)). Details: time post-induction: 4.5 h; library: site-saturation at positions 5, 18, 19, 20.
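Also: peptides expressed intracellularly from a pBAD plasmid library in pooled LB shake-flask culture, induced with 0.3% L-arabinose, DNA abundance read by NGS, three biological replicates, DESeq2 with apeglm shrinkage.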

Sequence	shrunken log2 fold change
RRIRHRPPRLPRPRPRPSLIPRP	0.954
RRIRERPPRLPRPRPRPDCHPRP	-0.011
RRIRYRPPRLPRPRPRPYSLPRP	-0.335
RRIRARPPRLPRPRPRPWHYPRP	-0.253
RRIRIRPPRLPRPRPRPIEPPRP	0.0377
RRIRNRPPRLPRPRPRPETLPRP	0.373
RRIRQRPPRLPRPRPRPTNTPRP	-0.216
RRIRGRPPRLPRPRPRPYGGPRP	-0.26
RRIRGRPPRLPRPRPRPEKRPRP	0.993
RRIRQRPPRLPRPRPRPPLHPRP	0.24
RRIRNRPPRLPRPRPRPWNWPRP	-0.0655
RRIRQRPPRLPRPRPRPRDQPRP	-0.0332
RRIRYRPPRLPRPRPRPRACPRP	-0.143
RRIRDRPPRLPRPRPRPAVWPRP	1.19
RRIRKRPPRLPRPRPRPGWSPRP	3
RRIRRRPPRLPRPRPRPCNHPRP	-0.011
RRIRCRPPRLPRPRPRPMILPRP	-0.352
RRIRERPPRLPRPRPRPLWRPRP	0.0888
RRIRERPPRLPRPRPRPYVCPRP	-1.6
RRIRHRPPRLPRPRPRPDATPRP	0.286
RRIRYRPPRLPRPRPRPFKSPRP	-0.0165
RRIRKRPPRLPRPRPRPWYVPRP	-0.958
RRIRYRPPRLPRPRPRPALYPRP	-0.284
RRIRKRPPRLPRPRPRPRHHPRP	0.476
RRIRHRPPRLPRPRPRPLRHPRP	-0.132

Sequence	shrunken log2 fold change
RRIRNRPPRLPRPRPRPPRGPRP	1.3
RRIRRRPPRLPRPRPRPNGVPRP	0.00234
RRIRDRPPRLPRPRPRPDFYPRP	0.00164
RRIRYRPPRLPRPRPRPRQEPRP	-0.0183
RRIRWRPPRLPRPRPRPFHWPRP	0.175
RRIRCRPPRLPRPRPRPTNTPRP	-0.364
RRIRHRPPRLPRPRPRPMTEPRP	0.0178
RRIRCRPPRLPRPRPRPKSCPRP	0.0733
RRIRARPPRLPRPRPRPEPQPRP	0.862
RRIRARPPRLPRPRPRPLTVPRP	0.242
RRIRLRPPRLPRPRPRPFWVPRP	-0.11
RRIRVRPPRLPRPRPRPMINPRP	-0.257
RRIRPRPPRLPRPRPRPCDVPRP	-0.155
RRIRPRPPRLPRPRPRPKCCPRP	0.228
RRIRHRPPRLPRPRPRPLDVPRP	0.0138
RRIRERPPRLPRPRPRPIYTPRP	0.036
RRIRGRPPRLPRPRPRPHLGPRP	0.427
RRIRIRPPRLPRPRPRPCTCPRP	-0.652
RRIRLRPPRLPRPRPRPVQQPRP	0.053
RRIRLRPPRLPRPRPRPGAAPRP	0.543
RRIRIRPPRLPRPRPRPQYSPRP	-0.581
RRIRGRPPRLPRPRPRPHCFPRP	0.233
RRIRFRPPRLPRPRPRPMCDPRP	0.226
RRIRARPPRLPRPRPRPSKRPRP	0.0155
RRIRWRPPRLPRPRPRPNNFPRP	-0.0323

Sequence	shrunken log2 fold change
RRIRQRPPRLPRPRPRPLSIPRP	-0.325
RRIRCRPPRLPRPRPRPGCTPRP	-0.279
RRIRGRPPRLPRPRPRPKIHPRP	0.373
RRIRIRPPRLPRPRPRPVQQPRP	-0.168
RRIRCRPPRLPRPRPRPSPMPRP	0.0865
RRIRLRPPRLPRPRPRPGFCPRP	0.272
RRIRYRPPRLPRPRPRPKQQPRP	-0.0891
RRIRCRPPRLPRPRPRPTSGPRP	0.285
RRIRFRPPRLPRPRPRPYDPPRP	-0.0102
RRIRWRPPRLPRPRPRPGMWPRP	0.729
RRIRIRPPRLPRPRPRPEMNPRP	-0.0353
RRIRNRPPRLPRPRPRPCTGPRP	-0.0472
RRIRFRPPRLPRPRPRPMECPRP	-0.0638
RRIRPRPPRLPRPRPRPMVSPRP	-0.0725
RRIRERPPRLPRPRPRPAIRPRP	-0.0312
RRIRIRPPRLPRPRPRPPVMPRP	0.126
RRIRLRPPRLPRPRPRPVAYPRP	-0.438
RRIRGRPPRLPRPRPRPPWTPRP	0.68
RRIRFRPPRLPRPRPRPQPFPRP	-0.0783
RRIRGRPPRLPRPRPRPARLPRP	0.678
RRIRVRPPRLPRPRPRPTGEPRP	0.187
RRIRRRPPRLPRPRPRPQAEPRP	0.0907
RRIRTRPPRLPRPRPRPIDTPRP	-0.157
RRIRYRPPRLPRPRPRPCRSPRP	0.00487
RRIRGRPPRLPRPRPRPEMCPRP	1.4

Sequence	shrunken log2 fold change
RRIRDRPPRLPRPRPRPRNWPRP	0.615
RRIRHRPPRLPRPRPRPLRTPRP	1.02
RRIRARPPRLPRPRPRPWGDPRP	0.376
RRIRVRPPRLPRPRPRPGRRPRP	0.236
RRIRLRPPRLPRPRPRPPPCPRP	0.846
RRIRIRPPRLPRPRPRPEGFPRP	-0.321
RRIRPRPPRLPRPRPRPFTEPRP	-0.649
RRIRGRPPRLPRPRPRPLHKPRP	0.714
RRIRVRPPRLPRPRPRPNRTPRP	0.0905
RRIRIRPPRLPRPRPRPRAIPRP	-0.356
RRIRDRPPRLPRPRPRPLRFPRP	0.61
RRIRDRPPRLPRPRPRPRQGPRP	0.0779
RRIRQRPPRLPRPRPRPDQKPRP	0.019
RRIRKRPPRLPRPRPRPRHRPRP	0.264
RRIRWRPPRLPRPRPRPLTLPRP	-0.00729
RRIRERPPRLPRPRPRPSNYPRP	-1.12
RRIRRRPPRLPRPRPRPSYYPRP	-0.0156
RRIRCRPPRLPRPRPRPVGRPRP	0.422
RRIRYRPPRLPRPRPRPSAVPRP	-0.175
RRIRERPPRLPRPRPRPKIGPRP	-0.0947
RRIRNRPPRLPRPRPRPVMLPRP	-0.171
RRIRYRPPRLPRPRPRPCSHPRP	-0.566
RRIRKRPPRLPRPRPRPDHDPRP	0.0562
RRIRPRPPRLPRPRPRPVVEPRP	-0.0705
RRIRSRPPRLPRPRPRPYQRPRP	-0.103

Sequence	shrunken log2 fold change
RRIRIRPPRLPRPRPRPRKWPRP	0.0966
RRIRVRPPRLPRPRPRPVSLPRP	0.106
RRIRARPPRLPRPRPRPGWGPRP	0.463
RRIRQRPPRLPRPRPRPYVYPRP	0.00646
RRIRVRPPRLPRPRPRPCMEPRP	-1
RRIRHRPPRLPRPRPRPEQGPRP	0.0631
RRIRCRPPRLPRPRPRPPRKPRP	1.01
RRIRTRPPRLPRPRPRPGWRPRP	0.69
RRIRHRPPRLPRPRPRPPIGPRP	0.0617
RRIRQRPPRLPRPRPRPKKLPRP	-0.296
RRIRHRPPRLPRPRPRPKDMPRP	-0.282
RRIRARPPRLPRPRPRPGQNPRP	0.596
RRIRQRPPRLPRPRPRPVCEPRP	-0.00878
RRIRKRPPRLPRPRPRPGPQPRP	0.561
RRIRQRPPRLPRPRPRPTTNPRP	-0.143
RRIRQRPPRLPRPRPRPFFPPRP	-0.0441
RRIRDRPPRLPRPRPRPSCAPRP	-0.0293
RRIRSRPPRLPRPRPRPVKMPRP	0.0674
RRIRYRPPRLPRPRPRPKKWPRP	-0.113
RRIRDRPPRLPRPRPRPNCPPRP	-0.00232
RRIRDRPPRLPRPRPRPNLRPRP	-0.162
RRIRPRPPRLPRPRPRPPLTPRP	0.274
RRIRIRPPRLPRPRPRPAWPPRP	0.339
RRIRWRPPRLPRPRPRPLRMPRP	0.531
RRIRCRPPRLPRPRPRPWNCPRP	-0.142
